# Source: PMC4364296 (Molecular microbiology, 2014)
# Where two headings read alike, the source gives them in different places.
# T1: His-FtsZ (E. coli, UniProt P0A9A6 1-383)
# T1 sequence (looked up): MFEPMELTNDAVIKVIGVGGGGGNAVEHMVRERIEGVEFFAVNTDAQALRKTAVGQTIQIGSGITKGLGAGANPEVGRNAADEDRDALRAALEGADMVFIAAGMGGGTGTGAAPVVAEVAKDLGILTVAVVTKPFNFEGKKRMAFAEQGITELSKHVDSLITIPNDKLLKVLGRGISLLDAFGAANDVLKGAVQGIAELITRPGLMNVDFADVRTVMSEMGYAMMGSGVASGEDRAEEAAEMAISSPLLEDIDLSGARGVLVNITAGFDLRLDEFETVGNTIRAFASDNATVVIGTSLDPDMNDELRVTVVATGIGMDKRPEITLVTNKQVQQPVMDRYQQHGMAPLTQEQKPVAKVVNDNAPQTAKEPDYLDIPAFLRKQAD
# T2: FtsZ-L178E (E. coli, UniProt P0A9A6 1-383, L178E)
# T2 sequence (looked up): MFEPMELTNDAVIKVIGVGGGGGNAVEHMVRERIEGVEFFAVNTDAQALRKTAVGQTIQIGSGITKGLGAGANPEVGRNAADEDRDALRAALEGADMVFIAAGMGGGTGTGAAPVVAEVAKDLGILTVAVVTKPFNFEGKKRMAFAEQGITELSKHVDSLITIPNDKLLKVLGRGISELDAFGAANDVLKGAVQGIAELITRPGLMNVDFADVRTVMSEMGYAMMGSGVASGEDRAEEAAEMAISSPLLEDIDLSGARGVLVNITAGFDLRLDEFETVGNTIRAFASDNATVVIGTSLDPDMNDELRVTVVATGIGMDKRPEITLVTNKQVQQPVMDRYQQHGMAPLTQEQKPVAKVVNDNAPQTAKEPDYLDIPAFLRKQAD
# B1: FtsZ-WT (natural protein, E. coli, UniProt P0A9A6 1-383, looked up)
# chain: MFEPMELTNDAVIKVIGVGGGGGNAVEHMVRERIEGVEFFAVNTDAQALRKTAVGQTIQIGSGITKGLGAGANPEVGRNAADEDRDALRAALEGADMVFIAAGMGGGTGTGAAPVVAEVAKDLGILTVAVVTKPFNFEGKKRMAFAEQGITELSKHVDSLITIPNDKLLKVLGRGISLLDAFGAANDVLKGAVQGIAELITRPGLMNVDFADVRTVMSEMGYAMMGSGVASGEDRAEEAAEMAISSPLLEDIDLSGARGVLVNITAGFDLRLDEFETVGNTIRAFASDNATVVIGTSLDPDMNDELRVTVVATGIGMDKRPEITLVTNKQVQQPVMDRYQQHGMAPLTQEQKPVAKVVNDNAPQTAKEPDYLDIPAFLRKQAD
# B2: His-ZipA^185–328 (domain or fragment)
# chain: not shown
# What was measured:
# His-FtsZ = target: T1, His-FtsZ; experiment: BLI
# His-ZipA^185–328 [1] = target: B2; experiment: BLI
# His-ZipA^185–328 [2] = target: B2; experiment: BLI; remark: listed apart in the source
# His-ZipA^185–328 [3] = target: B2; experiment: BLI; remark: listed apart in the source
# [4] = target: the molecule itself; experiment: sedimentation of polymers + electron microscopy
# FtsZ-WT [5] = target: B1; experiment: BLI
# FtsZ-WT [6] = target: B1; experiment: BLI; remark: listed apart in the source
# FtsZ-L178E = target: T2, FtsZ-L178E; experiment: BLI
# FtsZ-WT [7] = target: B1; experiment: BLI; remark: listed apart in the source
binder,measurement,setting,value
ZipA^185–328 (untagged) (domain or fragment) not shown,Kd,His-FtsZ,8.1 ± 1.3 µM
"MinDΔ10-linker-CCTP (other, E. coli, UniProt P0AEZ3 1-260, looked up) MARIIVVTSGKGGVGKTTSSAAIATGLAQKGKKTVVIDFDIGLRNLDLIMGCERRVVYDFVNVIQGDATLNQALIKDKRTENLYILPASQTRDKDALTREGVAKVLDDLKAMDFEFIVCDSPAGIETGALMALYFADEAIITTNPEVSSVRDSDRILGILASKSRRAENGEEPIKEHLLLTRYNPGRVSRGDMLSMEDVLEILRIKLVGVIPEDQSVLRASNQGEPVILDINADAGKAYADTVERLLGEERPFRFIEEEKPEITLVTNKQVQQPVMDRYQQHGMAPLTQEQKPVAKVVNDNAPQTAKEPDYLDIPAFLRKQAD",Kd,His-ZipA^185–328 [1],1.4 ± 0.2 µM
same,Kd,His-ZipA^185–328 [2],11.7 ± 5.2 µM
"DYLDIPAFLRKQAD (peptide, UniProt P0A9A6 370-383, looked up) [CCTP (14 amino acids)]",Kd,His-ZipA^185–328 [3],140 ± 22 µM
"FtsZ-360 (domain or fragment, E. coli, UniProt P0A9A6 1-360, looked up) MFEPMELTNDAVIKVIGVGGGGGNAVEHMVRERIEGVEFFAVNTDAQALRKTAVGQTIQIGSGITKGLGAGANPEVGRNAADEDRDALRAALEGADMVFIAAGMGGGTGTGAAPVVAEVAKDLGILTVAVVTKPFNFEGKKRMAFAEQGITELSKHVDSLITIPNDKLLKVLGRGISLLDAFGAANDVLKGAVQGIAELITRPGLMNVDFADVRTVMSEMGYAMMGSGVASGEDRAEEAAEMAISSPLLEDIDLSGARGVLVNITAGFDLRLDEFETVGNTIRAFASDNATVVIGTSLDPDMNDELRVTVVATGIGMDKRPEITLVTNKQVQQPVMDRYQQHGMAPLTQEQKPVAKVVND",binding result,[4],binds
"KEPDYLDIPAFLRKQAD (domain or fragment, E. coli, UniProt P0A9A6 367-383, looked up) [MalE-CCTP]",Kd,His-ZipA^185–328 [3],30.8 ± 4.7 µM
B1,binding result,[4],binds
B2,Kd,FtsZ-WT [5],0.77 ± 0.1 µM
same,Kd,FtsZ-WT [6],0.42 ± 0.1 µM
same,Kd,FtsZ-L178E,5.3 ± 0.7 µM
"His-SlmA/SBS (natural protein, E. coli, UniProt P0C093 1-198, looked up) MAEKQTAKRNRREEILQSLALMLESSDGSQRITTAKLAASVGVSEAALYRHFPSKTRMFDSLIEFIEDSLITRINLILKDEKDTTARLRLIVLLLLGFGERNPGLTRILTGHALMFEQDRLQGRINQLFERIEAQLRQVLREKRMREGEGYTTDETLLASQILAFCEGMLSRFVRSEFKYRPTDDFDARWPLIAAQLQ",binding result,FtsZ-WT [7],binds
